The results in this text go back to patent publication US20060003330A1, “Streptococcus pneumoniae pbp2x mini-protein and uses thereof” (COMMISSARIAT A L'ENERGIE ATOMIQUE CENTRE NATIONAL DE LA …, priority 2002, published 2006).

The data set can be described thus: Solubility of purified mini-PBP2x (concentration without precipitating). In kind it is physicochemical. The settings on record: purified protein.

B1: Mini-PBP2x: Modified recombinant protein derived from PBP2x of β-lactam-sensitive S. pneumoniae strain R6, with deletions in the n-PB domain replaced by Gly linkers (protein, listed as Streptococcus pneumoniae)
chain: GSGAKRGTIYDRNGVPIAEDATSGGPNRSYPNGQFASSFIGGGMESSLNSILAGGGGDGKDVYTTISSPLQSFMETQMDAFQEKVKGKYMTATLVSAKTGEILATTQRPTFDADTKEGITEDFVWRDILYQSNYEPGSTMKVMMLAAAIDNNTFPGGEVFNSSELKIADATIRDWDVNEGLTGGRTMTFSQGFAHSSNVGMTLLEQKMGDATWLDYLNRFKFGVPTRFGLTDEYAGQLPADNIVNIAQSSFGQGISVTQTQMIRAFTAIANDGVMLEPKFISAIYDPNDQTARKSQKEIVGNPVSKDAASLTRTNMVLVGTDPVYGTMYNHSTGKPTVTVPGQNVALKSGTAQIADEKNGGYLVGLTDYIFSAVSMSPAENPDFILYVTVQQPEHYSGIQLGEFANPILERASAMKDSLNLQTTAKALEQVSQQSPYPMPSVKDISPGDLAEELRRNLVQPIVVGTGTKIKNSSAEEGKNLAPNQQVLILSDKAEEVPDMYGWTKETAETLAKWLNIELEFQGSGSTVQKQDVRANTAIKDIKKITLTLGD
In the case of B1, the “solubility (can be concentrated without precipitating)” value was ≥ 15 mg/mL.
